Data as given in patent US20240043534A1.
Substitutions are numbered along the chain they refer to.

How the values were obtained:
[1] = target: Fab with CK (kappa) light chain constant domain; experiment: ELISA
[2] = target: yeast histone chaperone protein Asf1 (Anti-silencing factor 1) (yeast) (UniProt P32447); experiment: cell-based or functional assay
[3] = target: N-terminal methyltransferase domain of the Zika virus bifunctional NS5 enzyme (MT ZIKV) (Zika virus); experiment: SPR, Fab as analyte on His-tag-immobilized antigen
[4] = target: N-terminal methyltransferase domain of the Zika virus bifunctional NS5 enzyme (MT ZIKV) (Zika virus); experiment: cell-based or functional assay
[5] = target: FabHS (human 4D5 scaffold with residues PEELRTNK replacing amino acids corresponding to 15-22 of SEQ ID NO:1); experiment: protein ELISA
Sequence of FabHS (human 4D5 scaffold with residues PEELRTNK replacing amino acids corresponding to 15-22 of SEQ ID NO:1) (light, as listed by the source): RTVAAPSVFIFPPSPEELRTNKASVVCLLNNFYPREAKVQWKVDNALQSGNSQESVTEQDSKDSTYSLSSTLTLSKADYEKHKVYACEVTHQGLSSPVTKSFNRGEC

[6] = target: Fab^H(Her2)-linker-GA1 fusion (13 residue linker); experiment: cell-based or functional assay
[7] = target: Fab^H (Herceptin Fab scaffold with wt human kappa Lc; Lc aa 123-127 EQLKS); experiment: SPR (preliminary results), Protein G variant against Fab scaffold
[8] = target: “Λ” Fab scaffold (4D5 scaffold with SEELQANK in the Lc region); experiment: as above
Sequence of “Λ” Fab scaffold (4D5 scaffold with SEELQANK in the Lc region) (light, as listed by the source): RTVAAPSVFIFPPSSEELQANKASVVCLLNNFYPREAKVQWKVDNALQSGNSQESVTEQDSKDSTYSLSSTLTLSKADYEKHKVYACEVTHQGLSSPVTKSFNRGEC

Sequence of yeast histone chaperone protein Asf1 (Anti-silencing factor 1) (yeast) (P32447 1-158 limits assumed): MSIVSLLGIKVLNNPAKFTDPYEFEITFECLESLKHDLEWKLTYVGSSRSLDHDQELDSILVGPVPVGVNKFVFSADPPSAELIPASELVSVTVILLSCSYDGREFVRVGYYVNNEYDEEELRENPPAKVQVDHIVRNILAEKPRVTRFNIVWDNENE

B1: Protein-G-A1 (SEQ ID NO:27) (designed binder)
chain: MKGETTTEAVDAATAEKVFKQYANDNGVDGEWTYDDATKTFTVTEKPEVIDASELTPAVTTYKLVINGRTLSGYTTTTAVDAATAEKVFKQYAYVHEVDGEWTYDDATKTFTVTEKPEVIDASELTPAVTTYKLVINGRTLSGETTTKAVDAETAEKAFKQYANDNGVDGVWTYDDATKTFTVTE
[1]
  EC50 ratio (preference for CK over Cλ): > 5000

B2: E11 Asf1 LRT-Fab (Fab, V domains shown)
VH: EVQLVESGGGLVQPGGSLRLSCAASGFNISYSSIHWVRQAPGKGLEWVASISSYYGSTYYADSVKGRFTISADTSKNTAYLQMNSLRAEDTAVYYCARSRGQASWDYWGQGTLVTVSS
VL: DIQMTQSPSSLSASVGDRVTITCRASQSVSSAVAWYQQKPGKAPKLLIYSASSLYSGVPSRFSGSRSGTDFTLTISSLQPEDFATYYCQQSSDDPITFGQGTKVEIKR
[2]
  β-lactamase (BL) split-enzyme complementation, fluorescent signal: < 10 fold

B3: Z2C4 ZIKV LRT-Fab (Fab, V domains shown)
VH: EVQLVESGGGLVQPGGSLRLSCAASGFNVYYSSIHWVRQAPGKGLEWVAYIYPSSGSTYYADSVKGRFTISADTSKNTAYLQMNSLRAEDTAVYYCARSWSPYGMDYWGQGTLVTVSS
VL: B2 VL with S91W, S92Y, D94S, P95L
[3]
  Kd: 0.7 nM
[4]
  β-lactamase (BL) split-enzyme complementation, limit of antigen detection: 30 nM

B4: Z2G6 ZIKV LRT-Fab (Fab, V domains shown)
VH: EVQLVESGGGLVQPGGSLRLSCAASGFNVYYYYIHWVRQAPGKGLEWVASIYSYSGYTYYADSVKGRFTISADTSKNTAYLQMNSLRAEDTAVYYCAREGVWWEDEFYPGLDYWGQGTLVTVSS
VL: B2 VL with S92W, D93S, D94S, P95L, I96F
[3]
  Kd: 1.7 nM
  koff: 9.2e-05 s⁻¹
[4]
  β-lactamase (BL) split-enzyme complementation, limit of antigen detection: 30 nM

B5: Protein-G-HS C6 (designed binder)
chain: MKGETTTEAVDAATAEKVFKQYANDNGVDGEWTYDDATKTFTVTEKPEVIDASELTPAVTTYKLVINGKTLKGETTTEAVDAATAEKVFKQYANDNGVDGEWTYDDATKTFTVTEKPEVIDASELTPAVTTYKLVINGRTLSGETTTKAVDAETAEKAFKQYSRPHVVDGVWTYDDATKTFTVTE
[5]
  IC50: 8 nM

B6: Protein-G-HS C7 (designed binder)
chain: B5 chain with S163A, R164Y, P165G, H166A
[5]
  IC50: 100 nM

B7: hOKT3(S)_LRT (Fab, V domains shown)
VH: EVQLVESGGGLVQPGGSLRLSCAASGYTFTRYTMHWVRQAPGKGLEWIGYINPSRGYTNYNQKFKDKATISTDKSKNTAYLQMNSLRAEDTAVYYCARYYDDHYSLDYWGQGTLVTVSS
VL: DIQMTQSPSSLSASVGDRVTITCSASSSVSYMNWYQQKPGKAPKRWIYDTSKLASGVPSRFSGSGSGTDYTLTISSLQPEDFATYYCQQWSSNPFTFGQGTKVEIKR
[6]
  redirected tumor-cell killing (LDH release), PBMC-SKBR3 co-cultures, bi-Fab at 50 nM: < 70%

B8: Protein G D (designed binder)
chain: TPAVTTYKLVINGRTLSGYTTTTAVDAATAEKVFKQIDMVSSVDGEWTYDDATKTFTVTEKPEKL
[7]
  Kd: 15 nM
[8]
  Kd: 50 nM
